Assay [1] addresses VLA-4 (α4β1, CD49d/CD29) (human (endogenous in Jurkat and primary human CD4+ T cells)) (UniProt P13612).
Assay [2] has the same target. The source holds these as a separate data set.

Sequence of UniProt P13612 (P13612 34-1032, chain 1 of 2): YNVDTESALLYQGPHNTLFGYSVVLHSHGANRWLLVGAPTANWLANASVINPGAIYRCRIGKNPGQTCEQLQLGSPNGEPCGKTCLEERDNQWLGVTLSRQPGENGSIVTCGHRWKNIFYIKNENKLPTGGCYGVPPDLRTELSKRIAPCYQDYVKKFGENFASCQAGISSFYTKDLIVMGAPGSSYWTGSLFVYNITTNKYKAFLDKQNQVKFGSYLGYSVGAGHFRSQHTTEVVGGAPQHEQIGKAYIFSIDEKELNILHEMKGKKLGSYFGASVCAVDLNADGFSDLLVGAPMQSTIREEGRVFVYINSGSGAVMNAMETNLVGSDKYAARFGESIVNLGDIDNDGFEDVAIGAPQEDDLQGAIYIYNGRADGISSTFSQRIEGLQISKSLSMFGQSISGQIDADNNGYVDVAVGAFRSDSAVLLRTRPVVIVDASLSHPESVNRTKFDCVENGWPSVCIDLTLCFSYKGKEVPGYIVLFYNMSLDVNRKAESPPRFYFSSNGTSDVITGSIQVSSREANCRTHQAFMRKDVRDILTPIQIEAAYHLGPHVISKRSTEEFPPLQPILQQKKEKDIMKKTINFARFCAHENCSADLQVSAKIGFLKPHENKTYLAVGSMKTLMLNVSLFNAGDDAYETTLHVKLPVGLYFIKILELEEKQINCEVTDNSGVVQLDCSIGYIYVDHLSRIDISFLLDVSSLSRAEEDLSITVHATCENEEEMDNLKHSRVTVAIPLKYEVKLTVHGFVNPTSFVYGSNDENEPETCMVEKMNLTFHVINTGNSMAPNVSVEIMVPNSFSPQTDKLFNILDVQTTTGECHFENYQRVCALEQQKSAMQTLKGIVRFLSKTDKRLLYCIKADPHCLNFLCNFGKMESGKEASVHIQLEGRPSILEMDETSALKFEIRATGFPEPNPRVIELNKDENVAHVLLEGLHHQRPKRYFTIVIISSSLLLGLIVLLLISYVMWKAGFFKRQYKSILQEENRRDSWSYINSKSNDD
Sequence of UniProt P13612 (P05556 21-798, chain 2 of 2, further chain): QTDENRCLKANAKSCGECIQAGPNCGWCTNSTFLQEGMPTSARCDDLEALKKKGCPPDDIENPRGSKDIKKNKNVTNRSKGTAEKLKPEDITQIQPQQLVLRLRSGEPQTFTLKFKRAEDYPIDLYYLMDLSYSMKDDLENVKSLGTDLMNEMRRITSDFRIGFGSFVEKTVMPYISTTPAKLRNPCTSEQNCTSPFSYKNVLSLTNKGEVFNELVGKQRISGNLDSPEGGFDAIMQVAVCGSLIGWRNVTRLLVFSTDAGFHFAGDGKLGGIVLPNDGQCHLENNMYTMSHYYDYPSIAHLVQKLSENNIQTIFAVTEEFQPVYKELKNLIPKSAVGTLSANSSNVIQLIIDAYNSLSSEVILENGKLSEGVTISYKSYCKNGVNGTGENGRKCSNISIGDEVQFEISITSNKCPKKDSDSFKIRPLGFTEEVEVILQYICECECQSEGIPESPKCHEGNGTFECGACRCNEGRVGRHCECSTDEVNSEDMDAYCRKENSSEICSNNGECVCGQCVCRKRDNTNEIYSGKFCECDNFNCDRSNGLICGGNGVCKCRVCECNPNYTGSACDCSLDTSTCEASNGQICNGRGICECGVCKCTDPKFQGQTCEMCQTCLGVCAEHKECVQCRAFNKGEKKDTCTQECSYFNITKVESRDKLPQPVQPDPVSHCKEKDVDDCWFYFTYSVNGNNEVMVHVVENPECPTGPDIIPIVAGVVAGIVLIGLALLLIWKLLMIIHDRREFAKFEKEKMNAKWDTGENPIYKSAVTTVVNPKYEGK

B1: human VCAM-1-Fc chimera (Fc fusion)
chain: FKIETTPESRYLAQIGDSVSLTCSTTGCESPFFSWRTQIDSPLNGKVTNEGTTSTLTMNPVSFGNEHSYLCTATCESRKLEKGIQVEIYSFPKDPEIHLSGPLEAGKPITVKCSVADVYPFDRLEIDLLKGDHLMKSQEFLEDADRKSLETKSLEVTFTPVIEDIGKVLVCRAKLHIDEMDSVPTVRQAVKELQVYISPKNTVISVNPSTKLQEGGSVTMTCSSEGLPAPEIFWSKKLDNGNLQHLSGNATLTLIAMRMEDSGIYVCEGVNLIGKNRKEVELIVQEKPFTVEISPGPRIAAQIGDSVMLTCSVMGCESPSFSWRTQIDSPLSGKVRSEGTNSTLTLSPVSFENEHSYLCTVTCGHKKLEKGIQVELYSFPRDPEIEMSGGLVNGSSVTVSCKVPSVYPLDRLEIELLKGETILENIEFLEDTDMKSLENKSLEMTFIPTIEDTGKALVCQAKLHIDDMEFEPKQRQSTQTLYVNVAPRDTTVLVSPSSILEEGSSVNMTCLSQGFPAPKILWSRQLPNGELQPLSENATLTLISTKMEDSGVYLCEGINQAGRSRKEVELIIQVTPKDIKLTAFPSESVKEGDTVIISCTCGNVPETWIILKKKAETGDTVLKSIDGAYTIRKAQLKDAGVYECESKNKVGSQLRSLTLDVQGRENNKDYFSPE
modifications: labeled with AF-647 for patterning
On to B1, for which the actin flow rate in the lamellipodial region of Jurkat T cells (GFP-actin) spreading on coverslips coated with anti-CD3 + VCAM-1 (85–95 nm/s on anti-CD3 alone) in assay [1] is 15 nm/s.

B2: His-tagged human VCAM-1 Fc (Fc fusion)
chain: B1 chain
On to B2, for which, in assay [2], the actin flow rate in the lamellipodial region of Jurkat T cells on supported lipid bilayers with mobile anti-CD3 + VCAM-1 was 60 nm/s.
